Reference: patent publication US20260217833A1 (APTEVO RESEARCH AND DEVELOPMENT, published 2026)
Residue numbers refer to the chain shown, from its start. Where two headings read alike, the source gives them in different places. One block for each binder: values may come before it.

Experiments:
human CD40 full-length [1] = target: T1, human CD40 full-length (human, UniProt P25942 21-277); experiment: flow cytometry, CHOK1SV/human CD40 cells
T1 construct: Also used for CD40 of Daudi cells, of CD40-expressing HEK293 cells and of the BPS CD40/NFkB HEK293 reporter cells where the row says so; also called CD4001012; CHOK1SV/CD40

human CD40 ECD- HAC tag = target: T2, human CD40 ECD- HAC tag (human); experiment: SPR (Biacore T200), bispecific captured on the chip, monovalent CD40 ECD injected
T2 construct: also called CD4001006; recombinant monomeric human CD40 ectodomain (ECD)

[2] = target: T3, human neonatal Fc receptor (FcRn, complexed with beta-2-macroglobulin) (human, UniProt P55899 24-297; P61769 21-119); experiment: SPR, FcRn/b2m immobilized, bispecific injected, pH 6.0, two-state reaction fit
T3 construct: also called Human FcRn/b2m

Human PD-L1 full-length [3] = target: T4, Human PD-L1 full-length (human, UniProt Q9NZQ7 19-290); experiment: flow cytometry, CHOK1SV/human PD-L1 cells
T4 construct: also called PDL01021; CHOK1SV/huPDL1
T4 sequence (Q9NZQ7 19-290): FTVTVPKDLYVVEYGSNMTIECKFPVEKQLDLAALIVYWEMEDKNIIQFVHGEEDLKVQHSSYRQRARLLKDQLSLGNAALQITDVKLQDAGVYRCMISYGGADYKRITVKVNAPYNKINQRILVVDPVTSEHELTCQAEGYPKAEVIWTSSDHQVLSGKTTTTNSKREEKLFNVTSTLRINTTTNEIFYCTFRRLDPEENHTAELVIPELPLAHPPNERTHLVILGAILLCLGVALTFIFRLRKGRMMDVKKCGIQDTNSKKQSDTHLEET

Cynomolgus CHOK1SV/CD40 = target: T5, Cynomolgus CHOK1SV/CD40; experiment: flow cytometry, CHOK1SV/cynomolgus CD40 cells
T5 construct: also called Cyno CD40 full-length; CD4001013
T5 receptor chain: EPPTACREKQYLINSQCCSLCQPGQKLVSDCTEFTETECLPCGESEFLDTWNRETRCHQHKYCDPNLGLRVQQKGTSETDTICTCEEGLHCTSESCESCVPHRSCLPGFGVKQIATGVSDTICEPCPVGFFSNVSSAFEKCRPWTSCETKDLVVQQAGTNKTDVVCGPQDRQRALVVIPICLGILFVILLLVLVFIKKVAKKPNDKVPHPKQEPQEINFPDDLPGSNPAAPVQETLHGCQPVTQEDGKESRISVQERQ

Human PD-L1 full-length [4] = target: T4, Human PD-L1 full-length; experiment: flow cytometry, CHOK1SV/human PD-L1 cells; remark: listed apart in the source
Human PD-L1 full-length [5] = target: T4, Human PD-L1 full-length; experiment: MSD cell binding, CHOK1SV/human PD-L1 cells; x axis without printed unit
Cyno PD-L1 full-length = target: T6, Cyno PD-L1 full-length (cynomolgus, UniProt Q9NZQ7 19-290 (human entry)); experiment: MSD cell binding, CHOK1SV/cynomolgus PD-L1 cells; x axis without printed unit
T6 construct: also called PDL01022; CHOK1SV/cynoPDL1
T6 sequence (Q9NZQ7 other isoform, or with tags, fused parts or gaps): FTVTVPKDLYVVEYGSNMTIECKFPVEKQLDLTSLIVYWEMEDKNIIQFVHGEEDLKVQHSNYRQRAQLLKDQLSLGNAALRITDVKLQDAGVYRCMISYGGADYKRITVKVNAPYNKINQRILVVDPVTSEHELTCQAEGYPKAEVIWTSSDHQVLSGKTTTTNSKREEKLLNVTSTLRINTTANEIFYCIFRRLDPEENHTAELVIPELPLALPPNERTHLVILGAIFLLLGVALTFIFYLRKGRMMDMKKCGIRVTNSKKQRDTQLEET

huPD-L1 ECD AFH = target: T7, huPD-L1 ECD AFH (human); experiment: SPR, binder captured on anti-human IgG, PD-L1 ECD injected, 1:1 fit
T7 construct: also called PDL01001; recombinant human PD-L1 ectodomain (ECD)
T7 sequence (chain, as listed by the source limits assumed): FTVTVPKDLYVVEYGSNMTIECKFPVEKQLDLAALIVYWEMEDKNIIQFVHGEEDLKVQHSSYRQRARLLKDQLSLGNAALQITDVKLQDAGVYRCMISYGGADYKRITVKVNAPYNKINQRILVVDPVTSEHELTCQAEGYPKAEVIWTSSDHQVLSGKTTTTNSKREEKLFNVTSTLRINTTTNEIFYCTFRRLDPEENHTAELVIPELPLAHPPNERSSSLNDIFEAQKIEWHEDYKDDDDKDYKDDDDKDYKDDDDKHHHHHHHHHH

human CD40 full-length [6] = target: T1, human CD40 full-length; experiment: flow cytometry, CHOK1SV/human CD40 cells; remark: listed apart in the source
Human PD-L1 full-length [7] = target: T4, Human PD-L1 full-length; experiment: flow cytometry, CHOK1SV/human PD-L1 cells; remark: listed apart in the source

- binding result (human CD40 full-length [1]): binds
- Kd (human CD40 ECD- HAC tag): 57 nM
- koff (human CD40 ECD- HAC tag): 0.0004 s⁻¹
- kon (human CD40 ECD- HAC tag): 7000 M⁻¹ s⁻¹
- Kd [2]: 122 nM
- EC50 (read off the curve) (Human PD-L1 full-length [3]): ~5 nM
- binding result (Cynomolgus CHOK1SV/CD40): binds
B1: PC401119 (bispecific antibody)
chain: DIQMTQSPSSLSASVGDRVTITCRASQDINKFLSWYQQKPGKAPKLLIHYTSSLQSGVPSRFSGSGSGTDFTLTISSLQPEDFATYYCLQYDNLYTFGQGTKLEIKGGGGSGGGGSGGGGSGGGGSEVQLVESGGGLVQPGGSLRLSCAASGFTFSDYGMAWVRQAPGKGLEWVSFITSLAYIIYYADSVKGRFTISRDNAKNSLYLQMNSLRAEDTAVYYCARNYGSSPYYFDYWGQGTLVTVSSEPKSSDKTHTCPPCPAPPAAAPSVFLFPPKPKDTLMISRTPEVTCVVVDVSHEDPEVKFNWYVDGVEVHNAKTKPREEQYNSTYRVVSVLTVLHQDWLNGKEYKCAVSNKALPAPIEKTISKAKGQPREPQVYTLPPSRDELTKNQVSLTCLVKGFYPSDIAVEWESNGQPENNYKTTPPVLDSDGSFFLYSKLTVDKSRWQQGNVFSCSVMHEALHNHYTQKSLSLSPGGGGSPSDIQMTQSPSSVSASVGDRVTITCRASQSLLFSVNQKNYLAWYQQKPGKAPKLLIYWASSLQSGVPSRFSGSGSGTDFTLTISSLQPEDFATYYCQHYYSYPWTFGQGTKVEIKGGGGSGGGGSGGGGSGGGGSQVQLVQSGAEVKKPGSSVKVSCKASGYTFSTSWIEWIRQAPGQGLEWMGSILPGSGSTNYNQKFQGRVTITADTSTSTAYMELSSLRSEDTAVYYCARGDDGSYVRWYFDHWGQGTLVTVSS
notes: also called H-Ala60Asn

- binding result (human CD40 full-length [1]): binds
- Kd [2]: 144 nM
- binding result (Cynomolgus CHOK1SV/CD40): binds
- binding result (Human PD-L1 full-length [4]): binds
B2: PC401124 (bispecific antibody)
chain: B1 chain with V720N
notes: also called H-Ala60Asn + H-Val100aAsn

- binding result (human CD40 full-length [1]): binds
- binding result (Cynomolgus CHOK1SV/CD40): binds
- binding result (Human PD-L1 full-length [4]): binds
B3: PC401128 (bispecific antibody)
scFv-Fc-scFv chain: B1 chain with L512T, N676A
notes: also called L-Leu30Thr

- Kd (huPD-L1 ECD AFH): 1.1 nM
- koff (huPD-L1 ECD AFH): 0.0012 s⁻¹
- kon (huPD-L1 ECD AFH): 1.1e+06 M⁻¹ s⁻¹
B8: PDL01152 (Fc fusion)
chain: DIQMTQSPSSLSASVGDRVTITCRASQDINKFLSWYQQKPGKAPKLLIHYTSSLQSGVPSRFSGSGSGTDFTLTISSLQPEDFATYYCLQYDNLYTFGQGTKLEIKGGGGSGGGGSGGGGSGGGGSEVQLVESGGGLVQPGGSLRLSCAASGFTFSDYGMAWVRQAPGKGLEWVSFITSLAYIIYYADSVKGRFTISRDNAKNSLYLQMNSLRAEDTAVYYCARNYGSSPYYFDYWGQGTLVTVSS
notes: scFv (VL-VH); also called Humanized 5F9 anti-PD-L1 scFv; not shown: wildtype IgG1 Fc region

The remaining lines, values behind:

B4: PDL01034 (5F9HL x human IgG1 WT Fc) (Fc fusion)
chain: EVKLVESGGGLVQPGGSRKLSCAASGFTFSDYGMAWVRQAPGKGPEWVAFITSLAYIIFYSDTVTGRFTISRENAKNTLYLEMSSLRSEDTAVYYCARNYGSSPYYFDYWGQGTTLTVSSGGGGSGGGGSGGGGSGGGGSDIQMTQSPSSLSTSLGGKVTITCKASQDINKFISWYQHKPGKGPRLLIHYTSSLQPGIPSRFSGSGSGRDYSFSISNLEPEDIATYYCLQYDNLYTFGGGTKLEIK
notes: Murine anti-PD-L1 scFv (VH-VL) on human IgG1 wild-type Fc; also called PDL01034 (Parent); 5F9 clone PDL01034; not shown: human IgG1 WT Fc
- binding result (Human PD-L1 full-length [5]): binds
- binding result (Cyno PD-L1 full-length): binds
- Kd (huPD-L1 ECD AFH): 0.2 nM
- koff (huPD-L1 ECD AFH): 0.00024 s⁻¹
- kon (huPD-L1 ECD AFH): 1.4e+06 M⁻¹ s⁻¹

B5: CD4001074 (bispecific antibody)
CD40_5B9 x Fc-Knob: DVVMTQTPLSLPVSLGDQASISCRSSQSLVHYNGYTYLHWYLQKPGQSPKLLIYKVSNRFSGVPDRFSGSGSGTDFTLKISRVEAEDLGVYFCSQTTHVPLTFGAGTKLELRGGGGSGGGGSGGGGSGGGGSEVMLVESGGGLVKPGGSLKLSCAASGFTFSSYAMSWVRQTPERRLEWVASISSAGTYIYYPDSVKGRFTISRDNAKNILYLQMNSLRSEDTAMYYCARHGNGYDPLWYFDVWGAGTTVTVSSEPKSSDKTHTCPPCPAPPAAAPSVFLFPPKPKDTLMISRTPEVTCVVVDVSHEDPEVKFNWYVDGVEVHNAKTKPREEQYNSTYRVVSVLTVLHQDWLNGKEYKCAVSNKALPAPIEKTISKAKGQPREPQVYTLPPSRDELTKNQVSLWCLVKGFYPSDIAVEWESNGQPENNYKTTPPVLDSDGSFFLYSKLTVDKSRWQQGNVFSCSVMHEALHNHYTQKSLSLSPG
CD40_5B9 x Fc-Hole x PDL_5F9: DVVMTQTPLSLPVSLGDQASISCRSSQSLVHYNGYTYLHWYLQKPGQSPKLLIYKVSNRFSGVPDRFSGSGSGTDFTLKISRVEAEDLGVYFCSQTTHVPLTFGAGTKLELRGGGGSGGGGSGGGGSGGGGSEVMLVESGGGLVKPGGSLKLSCAASGFTFSSYAMSWVRQTPERRLEWVASISSAGTYIYYPDSVKGRFTISRDNAKNILYLQMNSLRSEDTAMYYCARHGNGYDPLWYFDVWGAGTTVTVSSEPKSSDKTHTCPPCPAPPAAAPSVFLFPPKPKDTLMISRTPEVTCVVVDVSHEDPEVKFNWYVDGVEVHNAKTKPREEQYNSTYRVVSVLTVLHQDWLNGKEYKCAVSNKALPAPIEKTISKAKGQPREPQVYTLPPSRDELTKNQVSLSCAVKGFYPSDIAVEWESNGQPENNYKTTPPVLDSDGSFFLVSKLTVDKSRWQQGNVFSCSVMHEALHNRFTQKSLSLSPGGGGSPSEVQLVESGGGLVKPGGSLRLSCAASGFTFSDYGMAWVRQAPGKGLEWVAFITSLAYIIYYADSVKGRFTISRDNAKNSLYLQMNSLRAEDTAVYYCARNYGSSPYYFDYWGQGTLVTVSSGGGGSGGGGSGGGGSGGGGSDIQMTQSPSSLSASVGDRVTITCRASQDINKFLSWYQQKPGKAPKLLIHYTSSLQPGVPSRFSGSGSGTDFTLTISSLQPEDFATYYCLQYDNLYTFGQGTKLEIK
- EC50 (read off the curve) (human CD40 full-length [6]): ~2 nM
- binding result (Human PD-L1 full-length [7]): binds

B6: CD4001077 (bispecific antibody)
PDL_5F9 x Fc-Knob: EVQLVESGGGLVKPGGSLRLSCAASGFTFSDYGMAWVRQAPGKGLEWVAFITSLAYIIYYADSVKGRFTISRDNAKNSLYLQMNSLRAEDTAVYYCARNYGSSPYYFDYWGQGTLVTVSSGGGGSGGGGSGGGGSGGGGSDIQMTQSPSSLSASVGDRVTITCRASQDINKFLSWYQQKPGKAPKLLIHYTSSLQPGVPSRFSGSGSGTDFTLTISSLQPEDFATYYCLQYDNLYTFGQGTKLEIKEPKSSDKTHTCPPCPAPPAAAPSVFLFPPKPKDTLMISRTPEVTCVVVDVSHEDPEVKFNWYVDGVEVHNAKTKPREEQYNSTYRVVSVLTVLHQDWLNGKEYKCAVSNKALPAPIEKTISKAKGQPREPQVYTLPPSRDELTKNQVSLWCLVKGFYPSDIAVEWESNGQPENNYKTTPPVLDSDGSFFLYSKLTVDKSRWQQGNVFSCSVMHEALHNHYTQKSLSLSPG
PDL_5F9 x Fc-Hole x CD40_5B9: EVQLVESGGGLVKPGGSLRLSCAASGFTFSDYGMAWVRQAPGKGLEWVAFITSLAYIIYYADSVKGRFTISRDNAKNSLYLQMNSLRAEDTAVYYCARNYGSSPYYFDYWGQGTLVTVSSGGGGSGGGGSGGGGSGGGGSDIQMTQSPSSLSASVGDRVTITCRASQDINKFLSWYQQKPGKAPKLLIHYTSSLQPGVPSRFSGSGSGTDFTLTISSLQPEDFATYYCLQYDNLYTFGQGTKLEIKEPKSSDKTHTCPPCPAPPAAAPSVFLFPPKPKDTLMISRTPEVTCVVVDVSHEDPEVKFNWYVDGVEVHNAKTKPREEQYNSTYRVVSVLTVLHQDWLNGKEYKCAVSNKALPAPIEKTISKAKGQPREPQVYTLPPSRDELTKNQVSLSCAVKGFYPSDIAVEWESNGQPENNYKTTPPVLDSDGSFFLVSKLTVDKSRWQQGNVFSCSVMHEALHNRFTQKSLSLSPGGGGSPSDVVMTQTPLSLPVSLGDQASISCRSSQSLVHYNGYTYLHWYLQKPGQSPKLLIYKVSNRFSGVPDRFSGSGSGTDFTLKISRVEAEDLGVYFCSQTTHVPLTFGAGTKLELRGGGGSGGGGSGGGGSGGGGSEVMLVESGGGLVKPGGSLKLSCAASGFTFSSYAMSWVRQTPERRLEWVASISSAGTYIYYPDSVKGRFTISRDNAKNILYLQMNSLRSEDTAMYYCARHGNGYDPLWYFDVWGAGTTVTVSS
- binding result (human CD40 full-length [6]): binds
- binding result (Human PD-L1 full-length [7]): binds

B7: CD4001080 (bispecific antibody)
Fc-knob x CD40_5B9: EPKSSDKTHTCPPCPAPPAAAPSVFLFPPKPKDTLMISRTPEVTCVVVDVSHEDPEVKFNWYVDGVEVHNAKTKPREEQYNSTYRVVSVLTVLHQDWLNGKEYKCAVSNKALPAPIEKTISKAKGQPREPQVYTLPPSRDELTKNQVSLWCLVKGFYPSDIAVEWESNGQPENNYKTTPPVLDSDGSFFLYSKLTVDKSRWQQGNVFSCSVMHEALHNHYTQKSLSLSPGGGGSPSDVVMTQTPLSLPVSLGDQASISCRSSQSLVHYNGYTYLHWYLQKPGQSPKLLIYKVSNRFSGVPDRFSGSGSGTDFTLKISRVEAEDLGVYFCSQTTHVPLTFGAGTKLELRGGGGSGGGGSGGGGSGGGGSEVMLVESGGGLVKPGGSLKLSCAASGFTFSSYAMSWVRQTPERRLEWVASISSAGTYIYYPDSVKGRFTISRDNAKNILYLQMNSLRSEDTAMYYCARHGNGYDPLWYFDVWGAGTTVTVSS
PDL_5F9 x Fc-Hole x CD40_5B9: B6 PDL_5F9 x Fc-Hole x CD40_5B9
- binding result (human CD40 full-length [6]): binds
- binding result (Human PD-L1 full-length [7]): binds
